One may read the koff as a measure of how fast the partners let go of each other. As a reminder, the Kd is the concentration at which binding is half-saturated.

Assay [1] deals with T1, soluble human FcRn (extra-cellular domain of heavy chain and β2M) (human, UniProt P55899 24-297; P61769 21-119).
T1 construct: also called shFcRn; soluble hFcRn
Kind of assay: Biacore, FcRn on chip, pH 7.4; pH 7.4; n = 2. (Surface plasmon resonance follows binding to a sensor surface in real time, without labels.)

In assay [2] the target is T1, soluble human FcRn (extra-cellular …). Kind of assay: Biacore, FcRn on chip, pH 6.0.
Assay [3] addresses T2, soluble monkey FcRn (monkey (cyno), UniProt Q8SPV9 24-297; Q8SPW0 21-119).
T2 construct: also called cyno
Kind of assay: Biacore, FcRn on chip, pH 6.0.

Assay [4] addresses T3, murine FcRn / murine β2M expressed on 3T3 cells (mouse, UniProt Q61559 22-365; P01887 21-119).
T3 construct: whole, on cells; also called mouse FcRn; 3T3 FcRn cells
T3 sequence (looked up): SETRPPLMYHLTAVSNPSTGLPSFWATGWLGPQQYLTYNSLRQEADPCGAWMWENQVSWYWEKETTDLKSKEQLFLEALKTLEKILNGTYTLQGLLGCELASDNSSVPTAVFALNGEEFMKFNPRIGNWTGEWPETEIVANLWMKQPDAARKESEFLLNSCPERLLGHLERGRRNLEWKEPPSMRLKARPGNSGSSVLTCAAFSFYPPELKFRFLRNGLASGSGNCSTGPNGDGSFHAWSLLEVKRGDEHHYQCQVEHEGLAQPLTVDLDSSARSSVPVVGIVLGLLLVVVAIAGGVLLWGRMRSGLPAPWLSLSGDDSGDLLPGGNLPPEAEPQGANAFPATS
T3 sequence (b2m, looked up): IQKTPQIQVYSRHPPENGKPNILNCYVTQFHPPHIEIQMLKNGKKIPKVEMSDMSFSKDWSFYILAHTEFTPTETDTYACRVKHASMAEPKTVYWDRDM
Kind of assay: FACS binding, Alexa488-mAb, pH 7.4. In general terms: A flow cytometer gives signals particle by particle.

Assay [5] concerns the target T4, rat FcRn / rat β2M expressed on cells (rat, UniProt P13599 23-366; P07151 21-119).
T4 construct: also called rat FcRn (cells); rat fibroblasts expressing rat FcRn
T4 sequence: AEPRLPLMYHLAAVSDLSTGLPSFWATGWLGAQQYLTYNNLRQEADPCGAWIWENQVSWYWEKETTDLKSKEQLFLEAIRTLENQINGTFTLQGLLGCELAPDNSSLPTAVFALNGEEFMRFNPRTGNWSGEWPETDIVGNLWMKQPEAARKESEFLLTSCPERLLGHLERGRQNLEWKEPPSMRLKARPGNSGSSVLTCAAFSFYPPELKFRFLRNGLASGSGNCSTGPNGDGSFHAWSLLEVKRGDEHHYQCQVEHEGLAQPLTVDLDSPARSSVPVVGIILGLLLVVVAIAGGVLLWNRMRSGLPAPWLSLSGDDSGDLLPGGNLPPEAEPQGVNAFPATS
T4 sequence (b2m): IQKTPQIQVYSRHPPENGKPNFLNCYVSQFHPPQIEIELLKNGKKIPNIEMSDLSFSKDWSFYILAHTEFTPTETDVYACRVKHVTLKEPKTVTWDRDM
Nature of the assay: FACS binding, Alexa488-mAb, pH 7.4.

Assay [6] deals with T1, soluble human FcRn (extra-cellular …). Kind of assay: Biacore, FcRn on chip, pH 7.4.
The target in assay [7] is T2, soluble monkey FcRn. Nature of the assay: Biacore, FcRn on chip, pH 7.4.

T1 sequence (P55899 24-297 limits assumed, chain 1 of 2): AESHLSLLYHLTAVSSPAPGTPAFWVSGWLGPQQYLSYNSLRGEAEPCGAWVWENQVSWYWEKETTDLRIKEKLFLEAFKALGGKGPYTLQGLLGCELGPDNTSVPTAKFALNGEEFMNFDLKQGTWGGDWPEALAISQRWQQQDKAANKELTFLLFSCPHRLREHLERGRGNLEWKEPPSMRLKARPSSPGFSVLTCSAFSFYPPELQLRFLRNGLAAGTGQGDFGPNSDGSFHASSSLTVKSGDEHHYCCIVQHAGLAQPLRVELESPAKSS
T1 sequence (P61769 21-119 limits assumed, chain 2 of 2): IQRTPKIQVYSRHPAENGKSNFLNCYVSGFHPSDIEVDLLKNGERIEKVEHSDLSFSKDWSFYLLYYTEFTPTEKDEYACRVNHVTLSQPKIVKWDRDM
T2 sequence (Q8SPV9 24-297, chain 1 of 2): as the sequence (P55899 24-297 limits assumed, chain 1 of 2) above, with N39D, E44Q, G99S, S189G, S190N, L217M, S269T counted along it
T2 sequence (Q8SPW0 21-119, chain 2 of 2): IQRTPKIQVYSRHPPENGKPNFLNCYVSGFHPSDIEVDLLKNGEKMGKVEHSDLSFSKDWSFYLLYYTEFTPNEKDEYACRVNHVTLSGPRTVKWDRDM

B1: 3B3.11 (antibody)
heavy: VKLQESGPELVKPGASVKISCKASGYAFSRSWMNWVKQRPGQGLEWIGRIHPGDGDTNYNGKFKGKATLTVAKSSSTAYMQLSSLTSVDSAVYFCANEGSPYFDYWGQGTTLTVSSAKTTPPSVYPLAPGSAAQTNSMVTLGCLVKGYFPEPVTVTWNSGSLSSGVHTFPAVLQSDLYTLSSSVTVPSSTWPSETVTCNVAHPASSTKVDKKLE
light: DIQLTQSPTTVAASPGEKITITCSASSSISSNYLHWYQQKPGFSPKLLIYRTSNLASGVPARFSGSGSGTSYSLTIGTMEAEDVATYYCQQGSNIPLTFGAGTKLELKRADAAPTVSIFPPSSEQLTSGGASVVCFLNNFYPKDINVKWKIDGSERQNGVLNSWTDQDSKDSTYSMSSTLTLTKDEYERHNSYTCEATHKTSTSPIVKSFNKNE
notes: also called mAb 3B3.11
Regarding B1, the koff is 1.45e-06 s⁻¹ in assay [1], 0.000176 s⁻¹ in assay [2], 0.000552 s⁻¹ with soluble monkey FcRn [3] and 0.000247 s⁻¹ in the assay with soluble monkey FcRn [7]. Moreover, the Kd was 1.17 nM in assay [2], 3.23 nM in the assay with soluble monkey FcRn [3], 0.16 nM in assay [6] and 3.24 nM with soluble monkey FcRn [7]. The binding result in assay [4] was “binds”; in assay [5], “no binding”.

The record behind these values is patent US20160222109A1 (DYAX, published 2016).
